*1 amine or outer side, *2 acyl side, *3 side chain or, on linkers, in order; H or OH if unused. [ ]: non-standard residue; d: D form. Tyr(Bzl) = L-benzyl-tyrosine, O=C([C@H](Cc1ccc(OCc2ccccc2)cc1)N[*:1])[*:2]; Phe(3,4-Cl2) = N[C@@H](Cc1ccc(Cl)c(Cl)c1)C(=O)O; 2Nal = N[C@@H](Cc1ccc2ccccc2c1)C(=O)O; Cha = N[C@@H](CC1CCCCC1)C(=O)O; pGlu = O=C1CC[C@@H](C(=O)O)N1; dNle = CCCC[C@@H](N)C(=O)O; Aib = CC(C)(N)C(=O)O
T1: APJ receptor (human, UniProt P35414 1-380)
T1 sequence (looked up): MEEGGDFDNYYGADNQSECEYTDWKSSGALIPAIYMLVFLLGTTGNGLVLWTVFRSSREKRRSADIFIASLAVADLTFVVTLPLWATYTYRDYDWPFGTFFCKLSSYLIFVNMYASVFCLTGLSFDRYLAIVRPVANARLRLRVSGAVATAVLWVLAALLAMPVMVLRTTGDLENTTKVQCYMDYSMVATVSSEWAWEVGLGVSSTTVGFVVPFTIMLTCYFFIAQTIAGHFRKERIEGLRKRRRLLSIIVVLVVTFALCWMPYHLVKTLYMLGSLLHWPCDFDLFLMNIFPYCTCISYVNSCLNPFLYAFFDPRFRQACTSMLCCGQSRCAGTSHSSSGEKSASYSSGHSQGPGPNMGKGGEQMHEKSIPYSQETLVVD


Molecular target: T1, APJ receptor
Assay: cell-based or functional assay

| Binder | hAPJ Ca^2+ Flux EC50 |
| --- | --- |
| [pGlu]RPRL[dA]HKGP[dNle][dL][dF]-OH (SMILES CCCC[C@@H](NC(=O)[C@@H]1CCCN1C(=O)CNC(=O)[C@H](CCCCN)NC(=O)[C@H](Cc1c[nH]cn1)NC(=O)[C@@H](C)NC(=O)[C@H](CC(C)C)NC(=O)[C@H](CCCNC(=N)N)NC(=O)[C@@H]1CCCN1C(=O)[C@H](CCCNC(=N)N)NC(=O)[C@@H]1CCC(=O)N1)C(=O)N[C@H](CC(C)C)C(=O)N[C@H](Cc1ccccc1)C(=O)O) [pE-R-P-R-L-a-H-K-G-P-nle-(D-Leu)-f-OH] | 3.2 nM |
| [pGlu]RPRL[dA]FKGP[dNle][dA][dF]-OH (SMILES CCCC[C@@H](NC(=O)[C@@H]1CCCN1C(=O)CNC(=O)[C@H](CCCCN)NC(=O)[C@H](Cc1ccccc1)NC(=O)[C@@H](C)NC(=O)[C@H](CC(C)C)NC(=O)[C@H](CCCNC(=N)N)NC(=O)[C@@H]1CCCN1C(=O)[C@H](CCCNC(=N)N)NC(=O)[C@@H]1CCC(=O)N1)C(=O)N[C@H](C)C(=O)N[C@H](Cc1ccccc1)C(=O)O) [pE-R-P-R-L-a-F-K-G-P-nle-a-f-OH] | 3.1 nM |
| [pGlu]RPRL[dA]HKGP[dNle][dA][dY]-OH (SMILES CCCC[C@@H](NC(=O)[C@@H]1CCCN1C(=O)CNC(=O)[C@H](CCCCN)NC(=O)[C@H](Cc1c[nH]cn1)NC(=O)[C@@H](C)NC(=O)[C@H](CC(C)C)NC(=O)[C@H](CCCNC(=N)N)NC(=O)[C@@H]1CCCN1C(=O)[C@H](CCCNC(=N)N)NC(=O)[C@@H]1CCC(=O)N1)C(=O)N[C@H](C)C(=O)N[C@H](Cc1ccc(O)cc1)C(=O)O) [pE-R-P-R-L-a-H-K-G-P-nle-a-y-OH] | 0.9 nM |
| [pGlu]RPRL[dA][dH]KGP[dNle][dA][dF]-OH [pE-R-P-R-L-a-h-K-G-P-nle-a-f-OH] | 8.8 nM |
| ERPRLAHKGXLAF (pE (pyroglutamic acid) at 1; D-Ala at 6; Pip (pipecolic acid) at 10; D-Nle at 11; D-Ala at 12; D-Phe at 13) [pE-R-P-R-L-a-H-K-G-Pip-nle-a-f-OH] | 2.3 nM |
| [pGlu]RPR[Tyr(Bzl)][dA]HKGP[dNle][dA][dF]-OH [pE-R-P-R-Y(Bzl)-a-H-K-G-P-nle-a-f-OH] | 121 nM |
| [pGlu]RPR[Cha][dA]HKGP[dNle][dA][dF]-OH (SMILES CCCC[C@@H](NC(=O)[C@@H]1CCCN1C(=O)CNC(=O)[C@H](CCCCN)NC(=O)[C@H](Cc1c[nH]cn1)NC(=O)[C@@H](C)NC(=O)[C@H](CC1CCCCC1)NC(=O)[C@H](CCCNC(=N)N)NC(=O)[C@@H]1CCCN1C(=O)[C@H](CCCNC(=N)N)NC(=O)[C@@H]1CCC(=O)N1)C(=O)N[C@H](C)C(=O)N[C@H](Cc1ccccc1)C(=O)O) [pE-R-P-R-Cha-a-H-K-G-P-nle-a-f-OH] | 2.8 nM |
| ERPRLAHKGPLAX (pE at 1; D-Ala at 6; D-Nle at 11; D-Ala at 12; D-Tic at 13) [pE-R-P-R-L-a-H-K-G-P-nle-a-tic-OH] | 1.7 nM |
| [pGlu]RPRL[dA]HKGP[dNle][dA][dD]-OH (SMILES CCCC[C@@H](NC(=O)[C@@H]1CCCN1C(=O)CNC(=O)[C@H](CCCCN)NC(=O)[C@H](Cc1c[nH]cn1)NC(=O)[C@@H](C)NC(=O)[C@H](CC(C)C)NC(=O)[C@H](CCCNC(=N)N)NC(=O)[C@@H]1CCCN1C(=O)[C@H](CCCNC(=N)N)NC(=O)[C@@H]1CCC(=O)N1)C(=O)N[C@H](C)C(=O)N[C@H](CC(=O)O)C(=O)O) [pE-R-P-R-L-a-H-K-G-P-nle-a-d-OH] | 86.8 nM |
| [pGlu]RPR[Phe(3,4-Cl2)][dA]HKGP[dNle][dA][dF]-OH (SMILES CCCC[C@@H](NC(=O)[C@@H]1CCCN1C(=O)CNC(=O)[C@H](CCCCN)NC(=O)[C@H](Cc1c[nH]cn1)NC(=O)[C@@H](C)NC(=O)[C@H](Cc1ccc(Cl)c(Cl)c1)NC(=O)[C@H](CCCNC(=N)N)NC(=O)[C@@H]1CCCN1C(=O)[C@H](CCCNC(=N)N)NC(=O)[C@@H]1CCC(=O)N1)C(=O)N[C@H](C)C(=O)N[C@H](Cc1ccccc1)C(=O)O) [pE-R-P-R-(3,4-Cl2-F)-a-H-K-G-P-nle-a-f-OH] | 13.8 nM |
| [pGlu]RPRL[dK]HKGP[dNle][dA][dF]-OH (SMILES CCCC[C@@H](NC(=O)[C@@H]1CCCN1C(=O)CNC(=O)[C@H](CCCCN)NC(=O)[C@H](Cc1c[nH]cn1)NC(=O)[C@@H](CCCCN)NC(=O)[C@H](CC(C)C)NC(=O)[C@H](CCCNC(=N)N)NC(=O)[C@@H]1CCCN1C(=O)[C@H](CCCNC(=N)N)NC(=O)[C@@H]1CCC(=O)N1)C(=O)N[C@H](C)C(=O)N[C@H](Cc1ccccc1)C(=O)O) [pE-R-P-R-L-k-H-K-G-P-nle-a-f-OH] | 1060 nM |
| [pGlu]RPRL[dL]HKGP[dNle][dA][dF]-OH (SMILES CCCC[C@@H](NC(=O)[C@@H]1CCCN1C(=O)CNC(=O)[C@H](CCCCN)NC(=O)[C@H](Cc1c[nH]cn1)NC(=O)[C@@H](CC(C)C)NC(=O)[C@H](CC(C)C)NC(=O)[C@H](CCCNC(=N)N)NC(=O)[C@@H]1CCCN1C(=O)[C@H](CCCNC(=N)N)NC(=O)[C@@H]1CCC(=O)N1)C(=O)N[C@H](C)C(=O)N[C@H](Cc1ccccc1)C(=O)O) [pE-R-P-R-L-(D-Leu)-H-K-G-P-nle-a-f-OH] | 155 nM |
| [pGlu]RPRL[dA]HKGP[dNle][dR][dF]-OH (SMILES CCCC[C@@H](NC(=O)[C@@H]1CCCN1C(=O)CNC(=O)[C@H](CCCCN)NC(=O)[C@H](Cc1c[nH]cn1)NC(=O)[C@@H](C)NC(=O)[C@H](CC(C)C)NC(=O)[C@H](CCCNC(=N)N)NC(=O)[C@@H]1CCCN1C(=O)[C@H](CCCNC(=N)N)NC(=O)[C@@H]1CCC(=O)N1)C(=O)N[C@H](CCCNC(=N)N)C(=O)N[C@H](Cc1ccccc1)C(=O)O) [pE-R-P-R-L-a-H-K-G-P-nle-r-f-OH] | 922 nM |
| [pGlu]RPR[dL]S[dA]KGP[dNle][dA][dF]-OH (SMILES CCCC[C@@H](NC(=O)[C@@H]1CCCN1C(=O)CNC(=O)[C@H](CCCCN)NC(=O)[C@@H](C)NC(=O)[C@H](CO)NC(=O)[C@@H](CC(C)C)NC(=O)[C@H](CCCNC(=N)N)NC(=O)[C@@H]1CCCN1C(=O)[C@H](CCCNC(=N)N)NC(=O)[C@@H]1CCC(=O)N1)C(=O)N[C@H](C)C(=O)N[C@H](Cc1ccccc1)C(=O)O) [pE-R-P-R-(D-Leu)-S-a-K-G-P-nle-a-f-OH] | 386 nM |
| [pGlu]RPR[2Nal][dA]HKGP[dNle][dA][dF]-OH (SMILES CCCC[C@@H](NC(=O)[C@@H]1CCCN1C(=O)CNC(=O)[C@H](CCCCN)NC(=O)[C@H](Cc1c[nH]cn1)NC(=O)[C@@H](C)NC(=O)[C@H](Cc1ccc2ccccc2c1)NC(=O)[C@H](CCCNC(=N)N)NC(=O)[C@@H]1CCCN1C(=O)[C@H](CCCNC(=N)N)NC(=O)[C@@H]1CCC(=O)N1)C(=O)N[C@H](C)C(=O)N[C@H](Cc1ccccc1)C(=O)O) [pE-R-P-R-(2-Nal)-a-H-K-G-P-nle-a-f-OH] | 69.2 nM |
| [pGlu]RPRL[dS]HKGP[dNle][dA][dF]-OH (SMILES CCCC[C@@H](NC(=O)[C@@H]1CCCN1C(=O)CNC(=O)[C@H](CCCCN)NC(=O)[C@H](Cc1c[nH]cn1)NC(=O)[C@@H](CO)NC(=O)[C@H](CC(C)C)NC(=O)[C@H](CCCNC(=N)N)NC(=O)[C@@H]1CCCN1C(=O)[C@H](CCCNC(=N)N)NC(=O)[C@@H]1CCC(=O)N1)C(=O)N[C@H](C)C(=O)N[C@H](Cc1ccccc1)C(=O)O) [pE-R-P-R-L-s-H-K-G-P-nle-a-f-OH] | 0.9 nM |
| [pGlu]RPRL[dA]HKGP[dNle][dE][dF]-OH (SMILES CCCC[C@@H](NC(=O)[C@@H]1CCCN1C(=O)CNC(=O)[C@H](CCCCN)NC(=O)[C@H](Cc1c[nH]cn1)NC(=O)[C@@H](C)NC(=O)[C@H](CC(C)C)NC(=O)[C@H](CCCNC(=N)N)NC(=O)[C@@H]1CCCN1C(=O)[C@H](CCCNC(=N)N)NC(=O)[C@@H]1CCC(=O)N1)C(=O)N[C@H](CCC(=O)O)C(=O)N[C@H](Cc1ccccc1)C(=O)O) [pE-R-P-R-L-a-H-K-G-P-nle-e-f-OH] | 170 nM |
| [pGlu]RPRL[dA][Aib]KGP[dNle][dA][dF]-OH (SMILES CCCC[C@@H](NC(=O)[C@@H]1CCCN1C(=O)CNC(=O)[C@H](CCCCN)NC(=O)C(C)(C)NC(=O)[C@@H](C)NC(=O)[C@H](CC(C)C)NC(=O)[C@H](CCCNC(=N)N)NC(=O)[C@@H]1CCCN1C(=O)[C@H](CCCNC(=N)N)NC(=O)[C@@H]1CCC(=O)N1)C(=O)N[C@H](C)C(=O)N[C@H](Cc1ccccc1)C(=O)O) [pE-R-P-R-L-a-Aib-K-G-P-nle-a-f-OH] | 2.1 nM |
| [pGlu]RPRL[dA]HKGP[dNle][dP][dF]-OH (SMILES CCCC[C@@H](NC(=O)[C@@H]1CCCN1C(=O)CNC(=O)[C@H](CCCCN)NC(=O)[C@H](Cc1c[nH]cn1)NC(=O)[C@@H](C)NC(=O)[C@H](CC(C)C)NC(=O)[C@H](CCCNC(=N)N)NC(=O)[C@@H]1CCCN1C(=O)[C@H](CCCNC(=N)N)NC(=O)[C@@H]1CCC(=O)N1)C(=O)N1CCC[C@@H]1C(=O)N[C@H](Cc1ccccc1)C(=O)O) [pE-R-P-R-L-a-H-K-G-P-nle-p-f-OH] | 1.1 nM |
| [pGlu]RPRL[dA]HKGP[dNle]F-OH (SMILES CCCC[C@@H](NC(=O)[C@@H]1CCCN1C(=O)CNC(=O)[C@H](CCCCN)NC(=O)[C@H](Cc1c[nH]cn1)NC(=O)[C@@H](C)NC(=O)[C@H](CC(C)C)NC(=O)[C@H](CCCNC(=N)N)NC(=O)[C@@H]1CCCN1C(=O)[C@H](CCCNC(=N)N)NC(=O)[C@@H]1CCC(=O)N1)C(=O)N[C@@H](Cc1ccccc1)C(=O)O) [pE-R-P-R-L-a-H-K-G-P-nle-F-OH] | 66.5 nM |

Reference: patent US10005829B2, “Synthetic linear apelin mimetics for the treatment of heart failure” (priority 2012, dated 2018)
